This assay has as its target truncated human ACE2 (residues 19-613 with a C-terminal AviTag and 6xHis-tag), biotinylated (human) (UniProt Q9BYF1). The experiment in a line: BLI.

Consider “SARS-CoV-2 ancestral receptor-binding domain (RBD), recombinant (from UniProt P0DTC2) (domain or fragment)”, for which the t1/2 stood at 1.39 min.

Source of the values: article PMC10372118.
